# From the Human Domainome abundance scans (Beltran et al. 2025)
# ± gives the uncertainty stated by the source.
# Test: abundance fitness (aPCA) (normalised: wild type 0, dead -1); higher = more abundant; growth selection in yeast, the domain comes from the species named
# Conditions: Homo sapiens
row,Substance,abundance fitness
1,"DnaJ homolog subfamily B member 1 R13G, P25685",-0.305 ± 0.064
2,"DnaJ homolog subfamily B member 1 L55K, P25685",-0.781 ± 0.11
3,"DnaJ homolog subfamily B member 1 L11S, P25685",-0.381 ± 0.081
4,"DnaJ homolog subfamily B member 1 L9M, P25685",-0.412 ± 0.16
5,"DnaJ homolog subfamily B member 1 G10I, P25685",-0.756 ± 0.19
6,"DnaJ homolog subfamily B member 1 D53G, P25685",-0.098 ± 0.15
7,"DnaJ homolog subfamily B member 1 K44H, P25685",-0.182 ± 0.16
8,"DnaJ homolog subfamily B member 1 Y6K, P25685",-0.911 ± 0.15
9,"DnaJ homolog subfamily B member 1 N36E, P25685",-0.174 ± 0.084
10,"DnaJ homolog subfamily B member 1 E42T, P25685",-0.052 ± 0.093
11,"DnaJ homolog subfamily B member 1 A51T, P25685",-0.815 ± 0.071
12,"DnaJ homolog subfamily B member 1 S16N, P25685",-0.059 ± 0.1
13,"DnaJ homolog subfamily B member 1 D17L, P25685",0.038 ± 0.072
14,"DnaJ homolog subfamily B member 1 K37F, P25685",-0.645 ± 0.17
15,"DnaJ homolog subfamily B member 1 R25A, P25685",0.011 ± 0.079
16,"DnaJ homolog subfamily B member 1 H32G, P25685",-0.007 ± 0.072
17,"DnaJ homolog subfamily B member 1 H32T, P25685",-0.048 ± 0.072
18,"DnaJ homolog subfamily B member 1 Y31A, P25685",-0.175 ± 0.12
19,"DnaJ homolog subfamily B member 1 S56Y, P25685",-0.493 ± 0.11
20,"DnaJ homolog subfamily B member 1 D57G, P25685",-0.298 ± 0.11
21,"DnaJ homolog subfamily B member 1 I63D, P25685",-0.014 ± 0.21
22,"DnaJ homolog subfamily B member 1 Y6C, P25685",-0.863 ± 0.22
23,"DnaJ homolog subfamily B member 1 E19K, P25685",-0.396 ± 0.099
24,"DnaJ homolog subfamily B member 1 A12Q, P25685",-0.094 ± 0.094
25,"DnaJ homolog subfamily B member 1 A23W, P25685",-0.984 ± 0.09
26,"DnaJ homolog subfamily B member 1 E62D, P25685",-0.31 ± 0.13

row,Substance,abundance fitness
1,"DnaJ homolog subfamily B member 1 I63Q, P25685",0.098 ± 0.074
2,"DnaJ homolog subfamily B member 1 I20C, P25685",-0.431 ± 0.079
3,"DnaJ homolog subfamily B member 1 A15P, P25685",-0.702 ± 0.098
4,"DnaJ homolog subfamily B member 1 E47Q, P25685",-0.153 ± 0.1
5,"DnaJ homolog subfamily B member 1 T8D, P25685",-0.101 ± 0.083
6,"DnaJ homolog subfamily B member 1 S56C, P25685",0.022 ± 0.16
7,"DnaJ homolog subfamily B member 1 K21V, P25685",-0.078 ± 0.061
8,"DnaJ homolog subfamily B member 1 S56G, P25685",0.002 ± 0.079
9,"DnaJ homolog subfamily B member 1 E38F, P25685",-0.127 ± 0.12
10,"DnaJ homolog subfamily B member 1 D34W, P25685",-0.02 ± 0.15
11,"DnaJ homolog subfamily B member 1 T8H, P25685",0.211 ± 0.46
12,"DnaJ homolog subfamily B member 1 Y52H, P25685",-0.03 ± 0.3
13,"DnaJ homolog subfamily B member 1 A15H, P25685",-0.866 ± 0.15
14,"DnaJ homolog subfamily B member 1 A41Y, P25685",-0.631 ± 0.43
15,"DnaJ homolog subfamily B member 1 E62Y, P25685",-0.552 ± 0.22
16,"DnaJ homolog subfamily B member 1 R26F, P25685",-0.032 ± 0.094
17,"DnaJ homolog subfamily B member 1 A23Y, P25685",-0.665 ± 0.097
18,"DnaJ homolog subfamily B member 1 A51W, P25685",-1.08 ± 0.096
19,"DnaJ homolog subfamily B member 1 L9C, P25685",-0.823 ± 0.11
20,"DnaJ homolog subfamily B member 1 L11F, P25685",-0.949 ± 0.11
21,"DnaJ homolog subfamily B member 1 D34P, P25685",-0.285 ± 0.094
22,"DnaJ homolog subfamily B member 1 V54L, P25685",-0.171 ± 0.076
23,"DnaJ homolog subfamily B member 1 E43T, P25685",-0.109 ± 0.12
24,"DnaJ homolog subfamily B member 1 V54G, P25685",-0.322 ± 0.058
25,"DnaJ homolog subfamily B member 1 R25S, P25685",0.018 ± 0.076
26,"DnaJ homolog subfamily B member 1 R59S, P25685",-0.036 ± 0.081

row,Substance,abundance fitness
1,"DnaJ homolog subfamily B member 1 G40M, P25685",-0.14 ± 0.1
2,"DnaJ homolog subfamily B member 1 E50R, P25685",-0.036 ± 0.062
3,"DnaJ homolog subfamily B member 1 F45I, P25685",-0.158 ± 0.07
4,"DnaJ homolog subfamily B member 1 I20L, P25685",-0.143 ± 0.076
5,"DnaJ homolog subfamily B member 1 Q27R, P25685",-0.215 ± 0.066
6,"DnaJ homolog subfamily B member 1 F45A, P25685",-0.21 ± 0.076
7,"DnaJ homolog subfamily B member 1 L11C, P25685",-0.018 ± 0.088
8,"DnaJ homolog subfamily B member 1 E43D, P25685",-0.153 ± 0.14
9,"DnaJ homolog subfamily B member 1 H32K, P25685",-0.777 ± 0.16
10,"DnaJ homolog subfamily B member 1 A23E, P25685",-0.149 ± 0.086
11,"DnaJ homolog subfamily B member 1 E43W, P25685",-0.043 ± 0.069
12,"DnaJ homolog subfamily B member 1 A28Q, P25685",0.084 ± 0.16
13,"DnaJ homolog subfamily B member 1 A51L, P25685",-1.06 ± 0.082
14,"DnaJ homolog subfamily B member 1 A28D, P25685",-0.521 ± 0.21
15,"DnaJ homolog subfamily B member 1 K44F, P25685",-0.298 ± 0.12
16,"DnaJ homolog subfamily B member 1 K60L, P25685",-0.426 ± 0.052
17,"DnaJ homolog subfamily B member 1 R59A, P25685",-0.051 ± 0.086
18,"DnaJ homolog subfamily B member 1 I48K, P25685",-0.329 ± 0.2
19,"DnaJ homolog subfamily B member 1 D65W, P25685",-0.358 ± 0.19
20,"DnaJ homolog subfamily B member 1 E19T, P25685",-0.36 ± 0.073
21,"DnaJ homolog subfamily B member 1 V54C, P25685",0.063 ± 0.086
22,"DnaJ homolog subfamily B member 1 H32S, P25685",0.05 ± 0.073
23,"DnaJ homolog subfamily B member 1 I63M, P25685",-0.087 ± 0.085
24,"DnaJ homolog subfamily B member 1 E19D, P25685",-0.089 ± 0.092
25,"DnaJ homolog subfamily B member 1 L29M, P25685",-0.234 ± 0.12
26,"DnaJ homolog subfamily B member 1 L11P, P25685",-0.759 ± 0.12

row,Substance,abundance fitness
1,"DnaJ homolog subfamily B member 1 R30G, P25685",-0.056 ± 0.11
2,"DnaJ homolog subfamily B member 1 G14L, P25685",-0.266 ± 0.074
3,"DnaJ homolog subfamily B member 1 A23C, P25685",-0.169 ± 0.11
4,"DnaJ homolog subfamily B member 1 H32M, P25685",0.014 ± 0.089
5,"DnaJ homolog subfamily B member 1 A49S, P25685",-0.037 ± 0.074
6,"DnaJ homolog subfamily B member 1 G10H, P25685",-0.378 ± 0.14
7,"DnaJ homolog subfamily B member 1 S16Y, P25685",-0.676 ± 0.073
8,"DnaJ homolog subfamily B member 1 S56V, P25685",-0.071 ± 0.066
9,"DnaJ homolog subfamily B member 1 I48H, P25685",-0.561 ± 0.12
10,"DnaJ homolog subfamily B member 1 G40H, P25685",-0.131 ± 0.15
11,"DnaJ homolog subfamily B member 1 Y5I, P25685",-0.416 ± 0.21
12,"DnaJ homolog subfamily B member 1 D34Q, P25685",0.054 ± 0.11
13,"DnaJ homolog subfamily B member 1 I20A, P25685",-0.63 ± 0.092
14,"DnaJ homolog subfamily B member 1 E42M, P25685",0.038 ± 0.079
15,"DnaJ homolog subfamily B member 1 Q7L, P25685",-0.049 ± 0.057
16,"DnaJ homolog subfamily B member 1 P39N, P25685",0.035 ± 0.12
17,"DnaJ homolog subfamily B member 1 E38C, P25685",-0.027 ± 0.11
18,"DnaJ homolog subfamily B member 1 R59W, P25685",-0.186 ± 0.14
19,"DnaJ homolog subfamily B member 1 G40Y, P25685",-0.182 ± 0.15
20,"DnaJ homolog subfamily B member 1 L9T, P25685",-0.69 ± 0.14
21,"DnaJ homolog subfamily B member 1 D53Q, P25685",-0.279 ± 0.097
22,"DnaJ homolog subfamily B member 1 K21P, P25685",-0.822 ± 0.08
23,"DnaJ homolog subfamily B member 1 E38I, P25685",-0.034 ± 0.15
24,"DnaJ homolog subfamily B member 1 N36D, P25685",-0.221 ± 0.12
25,"DnaJ homolog subfamily B member 1 K21H, P25685",0.006 ± 0.085
